# Measured values as given in doi:10.1101/2021.10.14.464379 (bioRxiv, 2021).
# B1: Ipomoea batatas BAM5 (sweet potato beta-amylase) (enzyme)
# chain: APIPGVMPIGNYVSLYVMLPLGVVNADNVFPDKEKVEDELKQVKAGGCDGVMVDVWWGIIEAKGPKQYDWSAYRELFQLVKKCGLKIQAIMSFHQCGGNVGDAVFIPIPQWILQIGDKNPDIFYTNRAGNRNQEYLSLGVDNQRLFQGRTALEMYRDFMESFRDNMADFLKAGDIVDIEVGCGAAGELRYPSYPETQGWVFPGIGEFQCYDKYMVADWKEAVKQAGNADWEMPGKGAGTYNDTPDKTEFFRPNGTYKTDMGKFFLTWYSNKLIIHGDQVLEEANKVFVGLRVNIAAKVSGIHWWYNHVSHAAELTAGFYNVAGRDGYRPIARMLARHHATLNFTCLEMRDSEQPAEAKSAPQELVQQVLSSGWKEYIDVAGENALPRYDATAYNQMLLNVRPNGVNLNGPPKLKMSGLTYLRLSDDLLQTDNFELFKKFVKKMHADLDPSPNAISPAVLERSNSAITIDELMEATKGSRPFPWYDVTDMPVDGSNPFD
# Target: the molecule itself
# Test: SAXS
protein,measurement,value
B1,stoichiometry N,4
